Assay results reported in article PMC11193727, “Neutralizing antibodies reveal cryptic vulnerabilities and interdomain crosstalk in the porcine deltacoronavirus spike protein” (Nature Communications, 2024).
Positions count from the first letter of the chain named. In names and notes the source's numbering stands.

Key:
[1] = target: PDCoV S ectodomain, prefusion S trimer (porcine deltacoronavirus (PDCoV)); assay: cryo-EM structure; PDCoV S ectodomain (10.5 µM protomer) incubated with 22C10 Fab for about 10 min at room temperature
[2] = target: recombinant PDCoV S1 monomer (Porcine deltacoronavirus …, UniProt W8Q9Y7); assay: BLI; details: both partners purified
[3] = target: T1, PDCoV S1 (wild type), ELISA antigen (Porcine deltacoronavirus …, UniProt W8Q9Y7); assay: ELISA; details: both partners purified
T1 construct: source: HEK-293T, purified (Protein A Sepharose)

[4] = target: T2, full length PDCoV S protein expressed on Huh7 cells (porcine deltacoronavirus (PDCoV)); assay: immunostaining of cells or tissue; details: one partner purified
T2 construct: source: Huh7, transfected (pCAGGS), formaldehyde-fixed cells
T2 chain: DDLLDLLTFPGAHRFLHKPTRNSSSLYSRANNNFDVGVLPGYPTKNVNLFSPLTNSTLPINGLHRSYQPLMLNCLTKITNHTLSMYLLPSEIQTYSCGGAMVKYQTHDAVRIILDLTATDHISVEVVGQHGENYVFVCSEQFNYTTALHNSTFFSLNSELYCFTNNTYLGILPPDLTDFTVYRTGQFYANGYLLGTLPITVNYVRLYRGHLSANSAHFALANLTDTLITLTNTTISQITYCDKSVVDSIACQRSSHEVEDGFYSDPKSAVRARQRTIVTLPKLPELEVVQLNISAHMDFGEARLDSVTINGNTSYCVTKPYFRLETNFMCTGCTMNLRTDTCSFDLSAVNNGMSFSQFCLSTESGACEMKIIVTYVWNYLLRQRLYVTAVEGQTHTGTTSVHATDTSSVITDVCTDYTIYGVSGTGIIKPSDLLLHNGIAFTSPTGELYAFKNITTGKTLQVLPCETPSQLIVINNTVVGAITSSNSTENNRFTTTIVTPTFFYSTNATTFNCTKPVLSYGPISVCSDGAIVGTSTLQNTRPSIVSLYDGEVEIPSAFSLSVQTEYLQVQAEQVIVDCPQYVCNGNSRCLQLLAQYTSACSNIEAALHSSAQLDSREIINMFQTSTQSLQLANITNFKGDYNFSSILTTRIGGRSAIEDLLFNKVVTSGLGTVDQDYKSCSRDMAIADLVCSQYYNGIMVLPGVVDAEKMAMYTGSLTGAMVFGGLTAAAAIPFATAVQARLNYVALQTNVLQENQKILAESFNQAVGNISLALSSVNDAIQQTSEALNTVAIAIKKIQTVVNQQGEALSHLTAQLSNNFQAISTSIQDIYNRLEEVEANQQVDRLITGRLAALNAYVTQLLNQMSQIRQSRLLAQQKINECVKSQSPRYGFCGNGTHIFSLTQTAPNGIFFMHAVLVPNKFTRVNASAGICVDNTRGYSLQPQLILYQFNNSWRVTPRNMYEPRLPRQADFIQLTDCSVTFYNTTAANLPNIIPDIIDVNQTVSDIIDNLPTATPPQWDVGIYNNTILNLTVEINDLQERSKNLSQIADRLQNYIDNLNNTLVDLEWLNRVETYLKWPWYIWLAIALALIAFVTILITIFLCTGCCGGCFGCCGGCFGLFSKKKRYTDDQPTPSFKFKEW

[5] = target: T3, recombinant PDCoV S1 monomer (porcine deltacoronavirus (PDCoV)); assay: BLI
T3 chain: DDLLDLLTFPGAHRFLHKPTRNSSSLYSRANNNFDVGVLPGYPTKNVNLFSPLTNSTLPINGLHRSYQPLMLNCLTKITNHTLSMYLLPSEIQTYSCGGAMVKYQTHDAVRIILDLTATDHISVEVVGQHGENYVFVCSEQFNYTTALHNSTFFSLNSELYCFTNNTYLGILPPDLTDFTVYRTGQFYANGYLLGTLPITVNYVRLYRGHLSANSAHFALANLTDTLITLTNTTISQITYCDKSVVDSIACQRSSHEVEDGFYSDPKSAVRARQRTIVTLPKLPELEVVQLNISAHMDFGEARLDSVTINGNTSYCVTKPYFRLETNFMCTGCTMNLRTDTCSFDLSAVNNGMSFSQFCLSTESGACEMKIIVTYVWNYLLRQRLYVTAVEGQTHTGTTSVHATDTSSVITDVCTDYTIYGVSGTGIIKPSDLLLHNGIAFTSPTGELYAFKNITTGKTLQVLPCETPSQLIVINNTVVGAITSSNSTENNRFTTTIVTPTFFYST

[6] = target: T4, PDCoV S ectodomain, prefusion S trimer (porcine deltacoronavirus (PDCoV)); assay: BLI; monomeric S1B or untreated trimeric S immobilised on anti-strep mAb-coated protein A biosensor; mAb (50 µg/ml) or APN (100 µg/ml) for 30 min; details: both partners purified
T4 construct: also called prefusion PDCoV S trimer; trimeric S ectodomain; source: HEK-293T, transient (pCAGGS), purified from culture supernatant (streptactin beads); not shown: GCN4 trimerization motif, C-terminal, kept; Strep-tag, C-terminal, kept
T4 chain: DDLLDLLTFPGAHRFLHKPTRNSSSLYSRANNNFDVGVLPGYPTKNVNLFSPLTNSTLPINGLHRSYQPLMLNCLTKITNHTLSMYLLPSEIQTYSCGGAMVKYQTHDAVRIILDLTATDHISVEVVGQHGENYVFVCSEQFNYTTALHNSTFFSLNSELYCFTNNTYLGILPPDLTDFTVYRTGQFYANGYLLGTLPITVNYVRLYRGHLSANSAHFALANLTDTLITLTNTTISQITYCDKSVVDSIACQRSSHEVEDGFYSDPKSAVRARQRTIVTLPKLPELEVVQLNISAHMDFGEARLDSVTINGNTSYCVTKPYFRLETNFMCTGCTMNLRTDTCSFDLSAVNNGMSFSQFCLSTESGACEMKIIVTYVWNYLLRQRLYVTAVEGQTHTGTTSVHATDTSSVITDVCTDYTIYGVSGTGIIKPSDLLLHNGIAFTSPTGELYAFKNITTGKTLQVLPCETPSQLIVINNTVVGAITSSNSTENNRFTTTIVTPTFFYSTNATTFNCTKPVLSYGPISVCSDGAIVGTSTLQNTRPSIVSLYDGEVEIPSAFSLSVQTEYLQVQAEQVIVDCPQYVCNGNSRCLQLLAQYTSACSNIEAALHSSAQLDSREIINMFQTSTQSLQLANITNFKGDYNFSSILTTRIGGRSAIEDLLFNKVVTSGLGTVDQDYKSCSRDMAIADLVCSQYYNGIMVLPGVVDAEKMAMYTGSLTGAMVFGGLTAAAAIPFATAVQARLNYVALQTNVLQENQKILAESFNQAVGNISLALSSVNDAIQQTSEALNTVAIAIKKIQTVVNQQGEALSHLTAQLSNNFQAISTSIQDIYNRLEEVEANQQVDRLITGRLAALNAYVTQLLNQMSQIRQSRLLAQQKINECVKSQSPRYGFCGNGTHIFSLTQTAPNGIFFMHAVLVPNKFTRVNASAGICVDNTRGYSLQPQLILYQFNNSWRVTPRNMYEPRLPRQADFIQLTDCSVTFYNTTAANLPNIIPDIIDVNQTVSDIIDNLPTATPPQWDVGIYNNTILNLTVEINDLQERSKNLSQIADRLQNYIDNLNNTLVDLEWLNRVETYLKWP

PDCoV S1A domain = target: T5, PDCoV S1A domain (Porcine deltacoronavirus …, UniProt W8Q9Y7); assay: ELISA; purified Strep-tagged S antigens (S trimer, S1B, S1A; 1 µg/ml) coated on Maxisorp plates; human mAbs in fivefold dilutions from 10 µg/ml, RT 1 h; detection with HRP anti-human IgG; details: both partners purified
T5 construct: also called N-terminal domain; NTD; source: HEK-293T, transient (pCAGGS), purified from culture supernatant (streptactin beads); not shown: triple Strep-tag, C-terminal, kept

Question: How did the stoichiometry N [1] turn out when “PDCoV S ectodomain, prefusion S trimer (domain or fragment)” was run?
Answer: 3

B1: 22C10 human IgG1 monoclonal antibody (antibody, V domains shown)
VH: EVRLLESGGGLVQPGGSLRLSCAASGFTFSSYAMSWVRQAPGKGLEWVSIITDSGGGTYFADSVKGRFTISRDNSKNTLYLQMNSLRAEDTALYYCVKVGFCYSSTCPFDYWGQGTLVTVSS
VL: ELVMTQSPATLSVSPGERATLSCRASQSVSSDLAWYQQRPGRAPRLLIYDASTRTTGIPARFSGSGSGTEFTLTISSLQSEDFAVYYCHQYNNWLTFGQGTRLEIK
notes: IgG1, kappa; also called mAb 22C10; source: HEK-293T, transient, purified (Protein A Sepharose)
Question: Does B1 bind [2]?
Answer: binds

Question: Does B1 bind [3]?
Answer: binds

Question: Does B1 bind [4]?
Answer: binds

Question: What about the Kd [5] of the same molecule?
Answer: 46.6 nM

Question: Does B1 bind [6]?
Answer: binds

Question: Does B1 bind (PDCoV S1A domain)?
Answer: binds

B2: 42H3 human IgG1 monoclonal antibody (antibody, V domains shown)
VH: QVQLVESGGGVVQPGRSLRLSCAASGFTFSSYDMHWVRQAPGKGLEWVAVIWNDGSNEYYADSVKGRFIISRDNSKNTLYLQMNSLRAEDTAVYYCARRGIIMVRGLLGYWGQGTLVTVSS
VL: DIQMTQSPPSLSASVGDRVTITCRASQGISNYLAWHQQKPGKVPKLLIYTASTLQSGVPSRFSGSGSGTDFTLTISSLQPEDVATYYCQKYNSAPFTFGPGTKVDIK
notes: also called S1B neutralizer
Question: Does B2 bind [2]?
Answer: binds

Question: And the Kd [5]?
Answer: 42 nM

B3: 46E6 human IgG1 monoclonal antibody (antibody, V domains shown)
VH: B2 VH with D33A, N53R, Y59F, I69T, N77D
VL: B2 VL
notes: IgG1, kappa; also called S1B neutralizer
Question: Does B3 bind [2]?
Answer: binds

Question: What about the Kd [5] of the same molecule?
Answer: 19.9 nM
